# Key:
# [1] = biological target: Annexin A2 CTD (AnxA2) (Homo sapiens) (UniProt P07355); assay: fluorescence anisotropy; conditions: 20 mM HEPES pH 7.0, 100 mM NaCl, 1 mM DTT, with 1 mM CaCl2, MgCl2 or EGTA, 50 nM labelled oligo, 0-120 uM protein, temperature not stated
# [2] = biological target: AnxA2 mutant #3 K115A;K119A;R205A;K206A (Homo sapiens) (UniProt P07355); assay: fluorescence anisotropy; conditions: full PS DNA; no 2' modification; 20 mM HEPES pH 7.0, 100 mM NaCl, 1 mM DTT, with 1 mM CaCl2, MgCl2 or EGTA; 50 nM labelled oligo, 0-120 uM protein; temperature not stated
# Sequence of AnxA2 mutant #3 K115A;K119A;R205A;K206A (Homo sapiens) (P07355 34-339 K115A/K119A/R205A/K206A): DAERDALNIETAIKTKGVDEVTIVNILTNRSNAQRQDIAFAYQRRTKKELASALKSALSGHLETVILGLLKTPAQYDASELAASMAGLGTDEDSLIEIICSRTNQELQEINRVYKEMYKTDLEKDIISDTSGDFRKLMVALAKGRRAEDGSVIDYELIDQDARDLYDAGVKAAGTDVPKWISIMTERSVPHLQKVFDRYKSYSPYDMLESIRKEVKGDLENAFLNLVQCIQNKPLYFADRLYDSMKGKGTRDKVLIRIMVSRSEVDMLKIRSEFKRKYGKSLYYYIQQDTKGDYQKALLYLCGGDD
# Sequence of Annexin A2 CTD (AnxA2) (Homo sapiens) (P07355 34-339): as the sequence (P07355 34-339 K115A/K119A/R205A/K206A) above, with A82K, A86K, A172R, A173K counted along it
sequence,measurement,setting,value
"TTTTTTTTTTTTTTTTTTTG [T19G PS, labelled]",Kd,[1]; full PS DNA,8.2 µM
"GCCAGGCTGGTTATGACTCA [5-10-5 MALAT PS, labelled]",Kd,"[1]; full PS, 5-10-5 2'-MOE gapmer, 5-methyl-C",6.3 µM
"CTGCTAGCCTCTGGATTTGA [PTEN PS, labelled]",binding signal (fold weaker than wild type),[2],7
same,Kd,"[1]; full PS DNA, no 2' modification",5 µM
"GCCAGGCTGGTTATG [5-10 MALAT PS, labelled]",Kd,"[1]; full PS, 5 nt 2'-MOE 5' wing + 10 nt DNA, 5-methyl-C",9.3 µM
